From paper PMC5838168, “Effect of human very low-density lipoproteins on cardiotrophin-like cytokine factor 1 (CLCF1) activity” (Scientific Reports, 2018)

Target: T1, recombinant ApoE3 (human, UniProt P02649 19-317)
T1 construct: Apolipoprotein E, isoform ApoE3; also called apolipoprotein E3; source: bought: BioVision
Assay: AlphaScreen or HTRF; AlphaLISA: ApoE2, 3 or 4 (0-100 nM) with biotinylated CLCF1 (10 nM) in PBS 0.1% BSA, rat anti-ApoE IgG (3 nM), anti-rat IgG acceptor beads, streptavidin donor beads; also with ApoE (30 nM) preincubated with DMPC (0-1000 uM) 1 h at 37 °C
Conditions: both partners purified

T1 sequence (P02649 19-317): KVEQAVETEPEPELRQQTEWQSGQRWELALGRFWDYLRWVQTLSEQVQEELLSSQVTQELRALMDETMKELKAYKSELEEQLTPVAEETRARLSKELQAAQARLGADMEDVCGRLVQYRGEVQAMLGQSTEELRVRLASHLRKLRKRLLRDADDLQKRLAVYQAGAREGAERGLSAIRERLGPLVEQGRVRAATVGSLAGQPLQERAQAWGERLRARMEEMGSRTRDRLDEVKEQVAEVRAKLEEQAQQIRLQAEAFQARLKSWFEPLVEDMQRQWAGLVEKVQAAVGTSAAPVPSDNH

B1: biotinylated human CLCF1 (cardiotrophin-like cytokine factor 1) (ligand, UniProt Q9UBD9 28-225, looked up)
chain: LNRTGDPGPGPSIQKTYDLTRYLEHQLRSLAGTYLNYLGPPFNEPDFNPPRLGAETLPRATVDLEVWRSLNDKLRLTQNYEAYSHLLCYLRGLNRQAATAELRRSLAHFCTSLQGLLGSIAGVMAALGYPLPQPLPGTEPTWTPGPAHSDFLQKMDDFWLLKELQTWLWRSAKDFNRLKKKMQPPAAAVTLHLGAHGF
modifications: biotin on the Avitag (BirA biotin-ligase)
notes: Cardiotrophin-like cytokine factor 1 (CLCF1), human, mature protein, codon optimized synthetic cDNA in pET24d; also called biotinylated hCLCF1; hCLC biot
  binding result: binds
